The values below are quoted from earlier work in paper PMC7962812.

By Kd is commonly meant the equilibrium constant for the complex coming apart.

This series concerns the target Bax (Homo sapiens) (UniProt Q07812).

Sequence of Bcl-2 (P10415 whole entry): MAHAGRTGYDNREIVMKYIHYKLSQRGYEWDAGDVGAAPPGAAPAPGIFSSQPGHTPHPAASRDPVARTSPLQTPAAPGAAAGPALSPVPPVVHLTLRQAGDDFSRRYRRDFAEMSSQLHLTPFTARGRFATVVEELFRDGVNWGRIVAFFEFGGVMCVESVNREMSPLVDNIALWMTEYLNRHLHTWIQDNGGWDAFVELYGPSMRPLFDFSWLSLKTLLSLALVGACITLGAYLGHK
Sequence of Bax (Homo sapiens) (Q07812 whole entry): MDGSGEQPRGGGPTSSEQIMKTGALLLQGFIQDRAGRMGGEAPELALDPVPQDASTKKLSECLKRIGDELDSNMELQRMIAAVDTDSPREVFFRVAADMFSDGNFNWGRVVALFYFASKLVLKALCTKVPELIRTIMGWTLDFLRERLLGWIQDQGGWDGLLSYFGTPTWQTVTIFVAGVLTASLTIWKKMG

For Bcl-2 (from UniProt P10415), the Kd is 35.8 nM.
